For one molecule, Kd results are on record in PMC12418388, “DDX6 interacts with DDX3X to repress translation in microRNA-mediated silencing” (Nucleic Acids Research, 2025).

The experiment concerns the target T1, GST-DDX6 (wild type), recombinant (UniProt P54823 1-483).
T1 construct: DDX6 (DEAD-box helicase 6); Cloned in pGEX-KG; also called wild-type DDX6; source: E. coli BL21(DE3), purified (Glutathione Sepharose 4B)
T1 sequence (looked up): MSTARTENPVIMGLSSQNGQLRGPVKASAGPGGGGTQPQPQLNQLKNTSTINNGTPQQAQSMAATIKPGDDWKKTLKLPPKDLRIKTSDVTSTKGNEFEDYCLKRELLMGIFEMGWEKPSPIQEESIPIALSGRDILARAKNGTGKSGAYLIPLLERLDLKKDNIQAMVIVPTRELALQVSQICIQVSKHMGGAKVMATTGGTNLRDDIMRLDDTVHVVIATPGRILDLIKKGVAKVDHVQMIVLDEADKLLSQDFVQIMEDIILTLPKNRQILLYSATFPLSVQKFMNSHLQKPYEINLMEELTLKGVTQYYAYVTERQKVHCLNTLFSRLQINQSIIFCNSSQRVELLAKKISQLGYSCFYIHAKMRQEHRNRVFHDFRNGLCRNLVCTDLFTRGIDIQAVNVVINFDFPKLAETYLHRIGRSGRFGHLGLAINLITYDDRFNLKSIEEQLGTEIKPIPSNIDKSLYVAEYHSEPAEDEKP
Put plainly: BLI; BLItz; 6xHis-MBP-DDX3X^166-590 loaded on Ni-NTA biosensors; GST-DDX6 or GST-DDX6^Mut6 at 125, 250 and 500 nM; 20 mM Tris-HCl pH 8.0, 150 mM KCl, 0.02% Tween 20, DTT, 1 mg/ml BSA; global fit to a 1:1 model. Particulars: both partners purified. On the technique in general: BLI is a label-free optical method that tracks binding on a fibre tip over time.

B1: 6xHis-MBP-DDX3X^166-590 (domain or fragment, UniProt Q62167 166-590, looked up)
chain: IPVEATGNNCPPHIESFSDVEMGEIIMGNIELTRYTRPTPVQKHAIPIIKEKRDLMACAQTGSGKTAAFLLPILSQIYADGPGEALRAMKENGRYGRRKQYPISLVLAPTRELAVQIYEEARKFSYRSRVRPCVVYGGAEIGQQIRDLERGCHLLVATPGRLVDMMERGKIGLDFCKYLVLDEADRMLDMGFEPQIRRIVEQDTMPPKGVRHTMMFSATFPKEIQMLARDFLDEYIFLAVGRVGSTSENITQKVVWVEEIDKRSFLLDLLNATGKDSLTLVFVETKKGADSLEDFLYHEGYACTSIHGDRSQRDREEALHQFRSGKSPILVATAVAARGLDISNVKHVINFDLPSDIEEYVHRIGRTGRVGNLGLATSFFNERNINITKDLLDLLVEAKQEVPSWLENMAFEHHYKGSSRGRSKS
notes: Cloned in pMCSG9; source: E. coli BL21(DE3), purified (Ni-NTA)
For B1, the dissociation constant Kd – broadly, the equilibrium constant for the complex coming apart – turned out to be 389 nM.
